Measured values taken from article PMC7356578, “Heparin Blocks the Inhibition of Tissue Kallikrein 1 by Kallistatin through Electrostatic Repulsion” (Biomolecules, 2020).

B1: Recombinant human kallistatin (rKAL), wild type (natural protein, UniProt P29622 45-427, looked up)
chain: GSPSLKIAPANADFAFRFYYLIASETPGKNIFFSPLSISAAYAMLSLGACSHSRSQILEGLGFNLTELSESDVHRGFQHLLHTLNLPGHGLETRVGSALFLSHNLKFLAKFLNDTMAVYEAKLFHTNFYDTVGTIQLINDHVKKETRGKIVDLVSELKKDVLMVLVNYIYFKALWEKPFISSRTTPKDFYVDENTTVRVPMMLQDQEHHWYLHDRYLPCSVLRMDYKGDATVFFILPNQGKMREIEEVLTPEMLMRWNNLLRKRNFYKKLELHLPKFSISGSYVLDQILPRLGFTDLFSKWADLSGITKQQKLEASKSFHKATLDVDEAGTEAAAATSFAIKFFSAQTNRHILRFNRPFLVVIFSTSTQSVLFLGKVVDPTKP
notes: kallistatin (SERPINA4), human, residues 45-427; Vector pE-SUMO3; purified on a HisTrap column, so the SUMO3 fusion probably carries a His tag that leaves with SUMO3; During storage or crystallisation part of the protein is cleaved between F387 and F388 (P2-P1) by an unknown protease; the crystal structures hold this cleaved form; also called rKAL-WT; SERPINA4; source: E. coli BL21 (DE3), purified …
B2: Recombinant human tissue kallikrein 1 (KLK1), wild type (enzyme)
chain: not shown
notes: tissue kallikrein 1 (KLK1), human, residues 25-262; Vector pE-SUMO3; also called kallikrein-related peptidase 1

Tests used:
Settings in all cases: both partners purified
[1] = target: B2; assay: kinetics of protease inhibition (discontinuous assay); pseudo-first-order; 10 nM protease with 100-500 nM kallistatin variant, PBS, 0.1% PEG 8000, 22 ± 1 °C; apparent second-order rate constant kapp from kobs; k2 = kapp × SI
[2] = target: B2; assay: stoichiometry of inhibition by titration of residual protease activity; 1 µM protease with increasing kallistatin variant in PBS, 0.1% PEG 8000, 2 h, 37 °C; residual activity on 0.2 mM H-D-Val-Leu-Arg-AMC; intercept on the abscissa
[3] = target: B1; assay: SDS-stable covalent serpin-protease complex on reducing SDS-PAGE; 2 µg rKAL mixed with 0.5-1 µg KLK1 (2-3 min), 5 µg KLK1-99Lm (20 min) or 0.5 µg KLK1-70Lm (2 min) at room temperature, no heparin; Coomassie stain

Binder	k2 (kapp × SI, second-order rate constant) [1]	kapp (apparent second-order rate constant) [1]	SI (stoichiometry of inhibition) [2]	binding result [3]
B1	3400 M⁻¹ s⁻¹	2400 M⁻¹ s⁻¹	1.4	–
rKAL-307/308D (natural protein, human, UniProt P29622 45-427, looked up, kallistatin (SERPINA4), human, residues 45-427; double mutant of K307 and R308 to Asp; also called rKAL-K307/308D; source: E. coli BL21 (DE3), purified (HisTrap FF crude, SENP2 digestion, HiTrap SP)) GSPSLKIAPANADFAFRFYYLIASETPGKNIFFSPLSISAAYAMLSLGACSHSRSQILEGLGFNLTELSESDVHRGFQHLLHTLNLPGHGLETRVGSALFLSHNLKFLAKFLNDTMAVYEAKLFHTNFYDTVGTIQLINDHVKKETRGKIVDLVSELKKDVLMVLVNYIYFKALWEKPFISSRTTPKDFYVDENTTVRVPMMLQDQEHHWYLHDRYLPCSVLRMDYKGDATVFFILPNQGKMREIEEVLTPEMLMRWNNLLRDDNFYKKLELHLPKFSISGSYVLDQILPRLGFTDLFSKWADLSGITKQQKLEASKSFHKATLDVDEAGTEAAAATSFAIKFFSAQTNRHILRFNRPFLVVIFSTSTQSVLFLGKVVDPTKP	2000 M⁻¹ s⁻¹	1300 M⁻¹ s⁻¹	1.5	–
rKAL-R259D (natural protein, human, UniProt P29622 45-427, looked up, kallistatin (SERPINA4), human, residues 45-427; source: E. coli BL21 (DE3), purified (HisTrap FF crude, SENP2 digestion, HiTrap SP)) GSPSLKIAPANADFAFRFYYLIASETPGKNIFFSPLSISAAYAMLSLGACSHSRSQILEGLGFNLTELSESDVHRGFQHLLHTLNLPGHGLETRVGSALFLSHNLKFLAKFLNDTMAVYEAKLFHTNFYDTVGTIQLINDHVKKETRGKIVDLVSELKKDVLMVLVNYIYFKALWEKPFISSRTTPKDFYVDENTTVRVPMMLQDQEHHWYLHDDYLPCSVLRMDYKGDATVFFILPNQGKMREIEEVLTPEMLMRWNNLLRKRNFYKKLELHLPKFSISGSYVLDQILPRLGFTDLFSKWADLSGITKQQKLEASKSFHKATLDVDEAGTEAAAATSFAIKFFSAQTNRHILRFNRPFLVVIFSTSTQSVLFLGKVVDPTKP	3500 M⁻¹ s⁻¹	2200 M⁻¹ s⁻¹	1.6	–
rKAL-312/313D (natural protein, human, UniProt P29622 45-427, looked up, kallistatin (SERPINA4), human, residues 45-427; double mutant of K312 and K313 to Asp; also called rKAL-K312/313D; source: E. coli BL21 (DE3), purified (HisTrap FF crude, SENP2 digestion, HiTrap SP)) GSPSLKIAPANADFAFRFYYLIASETPGKNIFFSPLSISAAYAMLSLGACSHSRSQILEGLGFNLTELSESDVHRGFQHLLHTLNLPGHGLETRVGSALFLSHNLKFLAKFLNDTMAVYEAKLFHTNFYDTVGTIQLINDHVKKETRGKIVDLVSELKKDVLMVLVNYIYFKALWEKPFISSRTTPKDFYVDENTTVRVPMMLQDQEHHWYLHDRYLPCSVLRMDYKGDATVFFILPNQGKMREIEEVLTPEMLMRWNNLLRKRNFYDDLELHLPKFSISGSYVLDQILPRLGFTDLFSKWADLSGITKQQKLEASKSFHKATLDVDEAGTEAAAATSFAIKFFSAQTNRHILRFNRPFLVVIFSTSTQSVLFLGKVVDPTKP	1500 M⁻¹ s⁻¹	1000 M⁻¹ s⁻¹	1.5	–
rKAL-R300D (natural protein, human, UniProt P29622 45-427, looked up, kallistatin (SERPINA4), human, residues 45-427; source: E. coli BL21 (DE3), purified (HisTrap FF crude, SENP2 digestion, HiTrap SP)) GSPSLKIAPANADFAFRFYYLIASETPGKNIFFSPLSISAAYAMLSLGACSHSRSQILEGLGFNLTELSESDVHRGFQHLLHTLNLPGHGLETRVGSALFLSHNLKFLAKFLNDTMAVYEAKLFHTNFYDTVGTIQLINDHVKKETRGKIVDLVSELKKDVLMVLVNYIYFKALWEKPFISSRTTPKDFYVDENTTVRVPMMLQDQEHHWYLHDRYLPCSVLRMDYKGDATVFFILPNQGKMREIEEVLTPEMLMDWNNLLRKRNFYKKLELHLPKFSISGSYVLDQILPRLGFTDLFSKWADLSGITKQQKLEASKSFHKATLDVDEAGTEAAAATSFAIKFFSAQTNRHILRFNRPFLVVIFSTSTQSVLFLGKVVDPTKP	2900 M⁻¹ s⁻¹	1600 M⁻¹ s⁻¹	1.8	–
rKAL-R394D (natural protein, human, UniProt P29622 45-427, looked up, kallistatin (SERPINA4), human, residues 45-427; source: E. coli BL21 (DE3), purified (HisTrap FF crude, SENP2 digestion, HiTrap SP)) GSPSLKIAPANADFAFRFYYLIASETPGKNIFFSPLSISAAYAMLSLGACSHSRSQILEGLGFNLTELSESDVHRGFQHLLHTLNLPGHGLETRVGSALFLSHNLKFLAKFLNDTMAVYEAKLFHTNFYDTVGTIQLINDHVKKETRGKIVDLVSELKKDVLMVLVNYIYFKALWEKPFISSRTTPKDFYVDENTTVRVPMMLQDQEHHWYLHDRYLPCSVLRMDYKGDATVFFILPNQGKMREIEEVLTPEMLMRWNNLLRKRNFYKKLELHLPKFSISGSYVLDQILPRLGFTDLFSKWADLSGITKQQKLEASKSFHKATLDVDEAGTEAAAATSFAIKFFSAQTNDHILRFNRPFLVVIFSTSTQSVLFLGKVVDPTKP	1800 M⁻¹ s⁻¹	1000 M⁻¹ s⁻¹	1.8	–
B2	–	–	–	binds
